Test results published in patent publication US20140141019A1 (INSERM INSTITUT NATIONALDE LA SENTE ET DE LA RECHERCHE …, published 2014).
Ends that are not written are not given here.

T1: human HER4-Fc (recombinant human extracellular domain ErbB4/HER4 Fc chimera, R&D Systems) (human, UniProt Q15303 26-651)
T1 construct: extracellular domain; Bought protein; Fc part of the bought chimera not given
T1 sequence (looked up): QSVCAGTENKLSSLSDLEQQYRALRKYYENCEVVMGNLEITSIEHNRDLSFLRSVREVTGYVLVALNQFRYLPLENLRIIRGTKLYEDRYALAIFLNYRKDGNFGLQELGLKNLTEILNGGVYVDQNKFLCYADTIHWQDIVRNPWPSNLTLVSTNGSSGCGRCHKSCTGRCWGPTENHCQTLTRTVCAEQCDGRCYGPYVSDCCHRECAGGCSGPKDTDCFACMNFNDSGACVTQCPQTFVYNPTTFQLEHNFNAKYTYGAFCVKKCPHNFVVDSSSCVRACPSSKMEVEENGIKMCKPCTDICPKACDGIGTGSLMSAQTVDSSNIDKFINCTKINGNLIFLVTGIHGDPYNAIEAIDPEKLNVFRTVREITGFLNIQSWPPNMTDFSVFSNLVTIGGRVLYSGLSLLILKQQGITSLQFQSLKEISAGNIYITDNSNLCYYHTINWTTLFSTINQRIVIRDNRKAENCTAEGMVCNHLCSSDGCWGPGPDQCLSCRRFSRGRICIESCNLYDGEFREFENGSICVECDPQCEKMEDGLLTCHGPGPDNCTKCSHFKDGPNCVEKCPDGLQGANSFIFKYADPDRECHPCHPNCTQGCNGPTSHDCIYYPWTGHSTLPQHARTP

T2: HER3 peptide 343-357 DFLITGLNGDPWHKI (human, also: cellulose-bound)
T2 construct: SPOT peptide
T2 peptide: Ac-DFLITGLNGDPWHKI


What was measured:
[1] = molecular target: T3, HER2/HER3 complex on transfected NIH 3T3 cells (human, UniProt P04626 23-1255; P21860 20-1342); test: flow cytometry, HER2/HER3-transfected NIH-3T3 cells
T3 construct: whole, on cells; NIH 3T3 cells transfected with both HER2 and HER3; also called HER2-HER3 heterodimer
Procedure: (§1) After three washes in PBS-BSA 0.1%, cells were incubated with the fluorescein-conjugated anti-human IgG-Fragment Fc specific (Sigma) at 4° C. in the dark for 45 min. Cells were then washed three times and suspended in PBS for analysis using an EPICS flow cytometer (Beckman-Coulter, Fullerton, Calif.).

[2] = molecular target: T4, HER3 receptor on cells (HER3-transfected NIH 3T3 fibroblasts; SKBR3 cells; BxPC3 cells) (human, UniProt P21860 20-1342); test: flow cytometry, HER3-transfected NIH-3T3 cells
T4 construct: whole, on cells; also called ErbB3
Procedure: as §1

[3] = molecular target: T5, EGFR/HER4 on transfected NIH 3T3 cells (human, UniProt P00533 25-1210; Q15303 26-1308); test: flow cytometry, EGFR/HER4-transfected NIH-3T3 cells
T5 construct: whole, on cells; NIH 3T3 cells transfected with both EGFR and HER4
Procedure: as §1

[4] = molecular target: T6, EGFR on transfected NIH 3T3 cells (human, UniProt P00533 25-1210); test: flow cytometry, EGFR-transfected NIH-3T3 cells
T6 construct: whole, on cells
Procedure: as §1

[5] = molecular target: T7, HER2 on transfected NIH 3T3 cells (human, UniProt P04626 23-1255); test: flow cytometry, HER2-transfected NIH-3T3 cells
T7 construct: whole, on cells
Procedure: as §1

[6] = molecular target: T6, EGFR on transfected NIH 3T3 cells; test: flow cytometry, transfected NIH 3T3 cells
Procedure: as §1

[7] = molecular target: T7, HER2 on transfected NIH 3T3 cells; test: flow cytometry, transfected NIH 3T3 cells
Procedure: as §1

[8] = molecular target: T5, EGFR/HER4 on transfected NIH 3T3 cells; test: flow cytometry, transfected NIH 3T3 cells
Procedure: as §1

[9] = molecular target: T8, mouse HER3-Fc (recombinant mouse extracellular domain ErbB3/HER3 Fc chimera, R&D Systems) (mouse, UniProt Q61526 20-641); test: ELISA, coated mouse HER3-Fc 250 ng/ml
T8 construct: extracellular domain; Bought protein; also called murine HER3; Fc part of the bought chimera not given
T8 sequence (Q61526 20-641, change not shown): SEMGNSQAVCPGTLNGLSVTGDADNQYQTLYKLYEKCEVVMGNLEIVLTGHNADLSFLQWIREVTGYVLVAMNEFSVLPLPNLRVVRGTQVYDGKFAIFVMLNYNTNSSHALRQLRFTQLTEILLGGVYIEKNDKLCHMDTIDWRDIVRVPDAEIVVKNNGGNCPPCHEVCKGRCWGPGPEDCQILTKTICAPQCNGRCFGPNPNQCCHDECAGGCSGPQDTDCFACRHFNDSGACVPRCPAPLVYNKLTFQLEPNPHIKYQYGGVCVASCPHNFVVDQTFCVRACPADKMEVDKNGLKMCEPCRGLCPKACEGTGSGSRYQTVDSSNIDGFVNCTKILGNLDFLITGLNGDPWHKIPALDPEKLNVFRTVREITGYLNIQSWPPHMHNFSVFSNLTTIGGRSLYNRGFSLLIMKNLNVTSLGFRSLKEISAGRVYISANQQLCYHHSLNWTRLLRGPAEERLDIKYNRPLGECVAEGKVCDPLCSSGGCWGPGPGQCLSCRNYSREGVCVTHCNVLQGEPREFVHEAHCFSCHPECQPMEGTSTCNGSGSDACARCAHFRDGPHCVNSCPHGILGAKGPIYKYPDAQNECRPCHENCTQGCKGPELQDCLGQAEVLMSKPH

[10] = molecular target: T1, human HER4-Fc (recombinant human …); test: ELISA, coated HER4-Fc 50 ng
Text: The bound IgG were detected by using HRP-F(ab′) 2 goat anti human IgG F(ab′)2 specific (Interchim).

[11] = molecular target: T2, HER3 peptide 343-357 DFLITGLNGDPWHKI; test: SPOT peptide array, antibody at 1 µg/ml
[12] = molecular target: T1, human HER4-Fc (recombinant human …); test: ELISA, coated HER4-Fc 250 ng, anti-V5-HRP
Procedure: The purified human Fabs at various concentrations were incubated for 2 hours at 37° C. in coated wells at 250 ng HER3-Fc (or HER4-Fc). The bound Fabs were detected by using HRP-labeled anti-V5 antibody (Invitrogen). Revelation was done at 450 nm in the presence of TMB (Sigma). The Fabs were tested simultaneously for binding on HER3-Fc, HER4-Fc and on Bovine serum Albumin as control.

geometric mean [1]	geometric mean [2]	geometric mean [3]	geometric mean [4]	geometric mean [5]	binding result [6]	binding result [7]	binding result [8]	binding result [9]	binding result [10]	binding result [11]	binding result [12]	Binder
14.1	7.77	0.51	0.21	0.35	–	–	–	–	–	–	–	Ab#6 (Merrimack Pharmaceuticals) (antibody, V domains shown) VH: EVQLLESGGGLVQPGGSLRLSCAASGFTFSHYVMAWVRQAPGKGLEWVSSISSSGGWTLYADSVKGRFTISRDNSKNTLYLQMNSLRAEDTAVYYCTRGLKMATIFDYWGQGTLVTVSS VL: QSALTQPASVSGSPGQSITISCTGTSSDVGSYNVVSWYQQHPGKAPKLIIYEVSQRPSGVSNRFSGSKSGNTASLTISGLQTEDEADYYCCSYAGSSIFVIFGGGTKVTVL
68.8	10.5	0.53	0.26	0.44	no binding	no binding	no binding	binds	no binding (tested: 0.5 µg/ml)	–	–	mAb H3A-32 (purified human IgG) (antibody, V domains shown, expressed as human IgG1 in transiently transfected HEK 293 cells, protein A purified) VH: EVQLVESGGGLVQPGGSLRLSCAASGFTFDDYAMHWVRQAPGKGLEWVSGISWNSGSIGYADSVKGRFTISRDNAKNSLYLQMNSLRAEDTAVYYCAREGQWPNYGMDVWGQGTTVTVSS VL: not shown
70.4	12.3	0.67	0.33	0.56	no binding	no binding	no binding	binds	no binding (tested: 0.5 µg/ml)	binds	–	mAb H4B-121 (purified human IgG) (antibody, V domains shown, expressed as human IgG1 in HEK 293 cells) VH: EVQLVESGGGLVQPGRSLRLSCAASGFTFDDYAMHWVRQAPGKGLEWVSGISWNSGSIGYADSVKGRFTISRDNAKNSLYLQMNSLRAEDTAVYYCAREGQWPNYGMDVWGQGTTVTVSS VL: QSVLTQPPSVSAAPGQKVTISCPGSSSNIGNNYVSWYQQLPGTAPKLLIYDNNERPSGIPDRFSGSTSGTSATLDITDLQAEDEATYYCGAWDNTLGVYVLGTGTQLTVL
–	–	–	–	–	–	–	–	–	–	–	no binding	Fab H4B-121 (Fab, V domains shown, Fab made in E. coli periplasm with a V5 tag and a C-terminal 6xHis tag) VH: EVQLVESGGGLVQPGRSLRLSCAASGFTFDDYAMHWVRQAPGKGLEWVSGISWNSGSIGYADSVKGRFTISRDNAKNSLYLQMNSLRAEDTAVYYCAREGQWPNYGMDVWGQGTTVTVSS VL: QSVLTQPPSVSAAPGQKVTISCPGSSSNIGNNYVSWYQQLPGTAPKLLIYDNNERPSGIPDRFSGSTSGTSATLDITDLQAEDEATYYCGAWDNTLGVYVLGTGTQLTVL
–	–	–	–	–	–	–	–	–	–	–	no binding	Fab H3A-32 (Fab, V domains shown, Fab made in E. coli periplasm with a V5 tag and a C-terminal 6xHis tag; also called H3A-32 (Fab format)) VH: EVQLVESGGGLVQPGGSLRLSCAASGFTFDDYAMHWVRQAPGKGLEWVSGISWNSGSIGYADSVKGRFTISRDNAKNSLYLQMNSLRAEDTAVYYCAREGQWPNYGMDVWGQGTTVTVSS VL: not shown
13.3	7.85	0.52	0.28	0.41	no binding	no binding	no binding	binds	no binding (tested: 0.5 µg/ml)	–	–	mAb H4B-05 (purified human IgG) (antibody, V domains shown, expressed as human IgG1 in HEK 293 cells) VH: EVQLVESGGGLVQPGRSLRLSCAASGFTFDDYAMHWVRQAPGKGLEWVSGISWNSGSIGYADSVKGRFTISRDNAKNSLYLQMNSLRAEDTAVYYCAREGQWPNYGMDVWGQGTTVTVSS VL: not shown
–	–	–	–	–	–	–	–	–	–	–	no binding	Fab H4B-05 (Fab, V domains shown, Fab made in E. coli periplasm with a V5 tag and a C-terminal 6xHis tag; also called H4B-05 (Fab format)) VH: EVQLVESGGGLVQPGRSLRLSCAASGFTFDDYAMHWVRQAPGKGLEWVSGISWNSGSIGYADSVKGRFTISRDNAKNSLYLQMNSLRAEDTAVYYCAREGQWPNYGMDVWGQGTTVTVSS VL: not shown
66.6	11.5	0.53	0.24	0.52	no binding	no binding	no binding	binds	no binding (tested: 0.5 µg/ml)	–	–	mAb H3A-76 (purified human IgG) (antibody, V domains shown, expressed as human IgG1 in HEK 293 cells) VH: EVQLVESGGGLVQPGRSLRLSCAASGFTFDDYAMHWVRQAPGKGLEWVSGISWNSGSIGYADSVKGRFTISRDNAKDSLYLQMNSLRAEDTAVYYCAREGQWPNYGMDVWGQGTTVTVSS VL: QSVLTQPPSASGTPGQRVTISCSGSSSNIGSNSLNWYQQLPGTAPKLLIYSNNQRPPGVPDRFSGSRSGSSASLAISGLQSGDEGDYYCAAWDDSLKGYVFGTGTQLTVL
–	–	–	–	–	–	–	–	–	–	–	no binding	Fab H3A-76 (Fab, V domains shown, Fab made in E. coli periplasm with a V5 tag and a C-terminal 6xHis tag; also called H3A-76 (Fab format)) VH: EVQLVESGGGLVQPGRSLRLSCAASGFTFDDYAMHWVRQAPGKGLEWVSGISWNSGSIGYADSVKGRFTISRDNAKDSLYLQMNSLRAEDTAVYYCAREGQWPNYGMDVWGQGTTVTVSS VL: QSVLTQPPSASGTPGQRVTISCSGSSSNIGSNSLNWYQQLPGTAPKLLIYSNNQRPPGVPDRFSGSRSGSSASLAISGLQSGDEGDYYCAAWDDSLKGYVFGTGTQLTVL
68.5	10.6	0.53	0.26	0.5	no binding	no binding	no binding	binds	no binding (tested: 0.5 µg/ml)	–	–	mAb H3A-81 (purified human IgG) (antibody, V domains shown, expressed as human IgG1 in HEK 293 cells) VH: EVQLVESGGGLVQPGGSLRLSCAASGFTFDDYAMHWVRQAPGKGLEWVSGISWNSGSIGYADSVKGRFTISRDNAKNSLYLQMNSLRAEDTAVYYCAREGQWPNYGMDVWGQGTTVTVSS VL: not shown
–	–	–	–	–	–	–	–	–	–	–	no binding	Fab H3A-81 (Fab, V domains shown, Fab made in E. coli periplasm with a V5 tag and a C-terminal 6xHis tag; also called H3A-81 (Fab format)) VH: EVQLVESGGGLVQPGGSLRLSCAASGFTFDDYAMHWVRQAPGKGLEWVSGISWNSGSIGYADSVKGRFTISRDNAKNSLYLQMNSLRAEDTAVYYCAREGQWPNYGMDVWGQGTTVTVSS VL: not shown
15.5	9.32	0.59	0.25	0.42	–	–	–	–	–	–	–	U1-59 (Amgen/U3 Pharma-Daiichi Sankyo) (antibody, V domains shown) VH: QVQLQQWGAGLLKPSETLSLTCAVYGGSFSGYYWSWIRQPPGKGLEWIGEINHSGSTNYNPSLKSRVTISVETSKNQFSLKLSSVTAADTAVYYCARDKWTWYFDLWGRGTLVTVSS VL: not shown
